Reference: patent US20190309069A1 (SHANGHAI HENGRUI PHARMACEUTICAL, published 2019)

Columns and labels:
cynomolgus PD-1Fc = molecular target: T1, cynomolgus PD-1Fc (cynomolgus, UniProt B0LAJ3 25-170, Probably biotinylated for capture on avidin, as the human PD-1 FC was in this ELISA. Fused to an Fc that is not given.); assay: ELISA, cyno PD-1Fc
T1 construct: Source and construct of the cynomolgus PD-1 Fc fusion are not described; also called cyno PD-1; not shown: Fc part of the cynomolgus PD-1Fc fusion, and any linker

[1] = molecular target: T2, human ICOS/Fc (Beijing Sino Biological Inc.) (human, UniProt Q9Y6W8 21-141, limits assumed); assay: ELISA, protein coated at 1 µg/ml
T2 construct: Bought reagent; not shown: Fc part
T2 sequence (looked up): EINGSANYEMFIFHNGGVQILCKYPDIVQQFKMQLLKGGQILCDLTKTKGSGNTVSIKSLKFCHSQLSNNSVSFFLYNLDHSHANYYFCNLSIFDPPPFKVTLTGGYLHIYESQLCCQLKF
Method: (§1) To detect the specific binding activity of PD-1 antibody to other proteins of the PD-1 family, human CTLA4 and human CD28 were used for binding assays. Meanwhile, the PD-1 of mice was also used for binding assays so as to determine the diversity of PD-1 antibody for different species other than human/monkey.
(§2) Selectively binding proteins: human PD-1, human ICOS, human CTLA4, human CD28 and mouse PD-1, (Beijing Sino Biological Inc.), were respectively diluted to 1 μg/ml with PBS buffer, pipetted into a 96-well plate at 100 μl/well and standed for 16 h-20 h at 4° C. The 96-well plate was washed once with PBST (PH7.4 PBS, containing 0.05% tweeen20) after PBS buffer was removed, then the plate was incubated and blocked for 1 h at room temperature with 120 μl/well PBST/1% milk. After removal of the blocking solution, the plate was washed with PBST buffer for 3 times, followed by addition of the test PD-1 antibody, and incubated for 1.5 h at room temperature. After removal of the reaction system, the plate was washed for 3 times with PBST, followed by addition of 100 μl/well HRP-labeled anti-murine secondary antibody (The Jackson Laboratory) which was diluted by PBST/1% milk, and incubated for 1 h at room temperature. The plate was washed for 3 times with PBST, followed by addition of 100 μl/well TMB, and incubated for 5-10 min at room temperature. Then the reaction was terminated with addition of 100 μl/well 1M H₂SO₄. The absorbance value at 450 nm was read on the NOVOStar microplate reader.

[2] = molecular target: T3, human CTLA4 (Beijing Sino Biological Inc.) (human, UniProt P16410 36-162, limits assumed); assay: ELISA, protein coated at 1 µg/ml
T3 construct: Bought reagent
T3 sequence (looked up): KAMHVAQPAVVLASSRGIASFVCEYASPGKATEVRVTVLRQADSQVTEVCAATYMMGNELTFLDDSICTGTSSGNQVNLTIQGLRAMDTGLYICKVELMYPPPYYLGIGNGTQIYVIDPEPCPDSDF
Method: as §1, §2

[3] = molecular target: T4, human CD28 (Beijing Sino Biological Inc.) (human, UniProt P10747 19-152); assay: ELISA, protein coated at 1 µg/ml
T4 construct: Bought reagent
Method: as §1, §2

[4] = molecular target: T5, mouse PD1-Fc (Beijing Sino Biological Inc.) (mouse, UniProt Q02242 25-167, limits assumed); assay: ELISA, protein coated at 1 µg/ml
T5 construct: Bought reagent; also called murine PD-1; not shown: Fc part
T5 sequence (looked up): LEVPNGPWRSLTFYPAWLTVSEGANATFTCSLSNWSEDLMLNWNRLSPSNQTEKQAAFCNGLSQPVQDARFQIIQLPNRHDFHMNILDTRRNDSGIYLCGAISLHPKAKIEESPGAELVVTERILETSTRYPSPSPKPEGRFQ
Method: as §1, §2

[5] = molecular target: T2, human ICOS/Fc (Beijing Sino Biological …); assay: selectivity ELISA, protein coated at 1 µg/ml
Method: as §1, §2

[6] = molecular target: T3, human CTLA4 (Beijing Sino Biological …); assay: selectivity ELISA, protein coated at 1 µg/ml
Method: as §1, §2

[7] = molecular target: T4, human CD28 (Beijing Sino Biological …); assay: selectivity ELISA, protein coated at 1 µg/ml
Method: as §1, §2

[8] = molecular target: T6, human PD1-FC (Beijing Sino Biological Inc.) (human, UniProt Q15116 25-167, limits assumed); assay: selectivity ELISA, protein coated at 1 µg/ml
T6 construct: not shown: Fc part
Method: as §1, §2

[9] = molecular target: T5, mouse PD1-Fc (Beijing Sino Biological …); assay: selectivity ELISA, protein coated at 1 µg/ml
Method: as §1, §2

[10] = molecular target: T7, recombinant PD-1 extracellular domain Fc fusion protein (PD-1 Fc) (human, biotin label (sites not given) in the ELISA binding assay; unlabelled when coated in the ligand blocking assay); assay: ELISA, biotinylated PD-1 Fc captured on avidin
T7 construct: also called human PD-1Fc; human PD-1
Method: (§3) The PD-1 antibody blocks signaling pathway of PD-1 and its ligand by binding to PD-1 extracellular domain. In vitro ELISA assay is used to detect the binding property of the PD-1 antibody. Biotinylated PD-1 extracellular domain FC fusion protein (PD-1 FC) is coated onto 96-well plates by binding to neutralization avidin. Signal intensity after the addition of the antibody is used to determine the binding property of the antibody and PD-1.
Neutralization avidin (binding to biotin) was diluted to 1 μl/ml with PBS buffer, pipetted into a 96-well plate with at 100 μl/well and standed for 16 h-20 h at 4° C. The 96-well plate was washed once with PBST (PH7.4 PBS, containing 0.05% tweeen20) after PBS buffer was removed, then the plate was incubated and blocked for 1 h at room temperature with addition of 120 μl/well PBST/1% milk. After removal of the blocking solution, the plate was washed with PBST buffer, followed by addition of 1 μg/ml biotin-labeled PD1-FC which was diluted by PBST/1% milk, and incubated for 1 h at room temperature. After removal of the blocking solution, the plate was washed with PBST buffer for 3 times, followed by addition of the test PD-1 antibody which was diluted to a suitable concentration by PBST/1% milk, and incubated for 1.5 h at room temperature. […] The absorbance value at 450 nm was read on NOVOStar microplate reader; the ELISA binding EC₅₀ value was calculated.

[11] = molecular target: T8, PD-1 His protein (Beijing Sino Biological Inc.) (UniProt Q15116 25-167, limits assumed); assay: Biacore SPR, antibody coupled to CM5 chip, PD-1 His as analyte, 1:1 model
T8 construct: Bought reagent, analyte in the Biacore assay; not shown: His tag
Method: (§4) According to the instruction of a kit provided by Biacore, the test PD-1 antibody of the present invention was covalently linked to CM5 (GE) chip using a standard amino coupling method. Then a series of gradient concentrations of PD-1 His protein (Beijing Sino Biological Inc.), which were diluted in the same buffer, were loaded into each cycle successively. After that, the samples were regenerated with regenerated reagent in the kit. The antigen-antibody binding kinetics was tracked for 3 minutes and the dissociation kinetics was tracked for 10 minutes. The data obtained was analyzed by GE's BIAevaluation software using 1:1 (Langmuir) binding model.

[12] = molecular target: T7, recombinant PD-1 extracellular domain …; assay: ligand binding blocking ELISA: PD-1-FC coated, competitor biotin-labeled PD-L1
Method: (§5) In this experiment, a 96-well plate was coated with a PD-1 protein with the extracellular domain fused with FC (PD-1-FC), and incubated with the test PD-1 antibody; later biotin-labeled PD-L1 was added for incubation. After washing the plate, the binding amount of biotin-labeled PD-L1 was detected; the blocking IC₅₀ value of PD-1 antibody for ligand PD-L1 binding was calculated.
PD-1-FC was diluted to 1 μg/ml with PH 9.6 CB buffer (1.59 g Na₂CO₃ and 2.93 g NaHCO₃ were dissolved in 1 L of distilled water), pipetted into a 96-well plate at 100 μl/well and standed for 16 h-20 h at 4° C. The 96-well plate was washed once with PBST (PH7.4 PBS, containing 0.05% tweeen20) after PBS buffer was removed, then the plate was incubated and blocked for 1 h at room temperature with 120 μl/well PBST/1% milk. After removal of the blocking solution, the plate was washed with PBST buffer once, followed by addition of 90 μl of test PD-1 antibody which was diluted to a suitable concentration with sample diluents (PH7.4 PBS containing 5% BSA, 0.05% Tween20), and incubated for 1 h at 4° C. […] The absorbance value at 450 nm was read on the NOVOStar microplate reader; the blocking IC₅₀ value of PD-1 for ligand PD-L1 binding was calculated.

[13] = molecular target: T8, PD-1 His protein (Beijing Sino …); assay: Biacore SPR as in Example 5, PD-1 His as analyte
Method: as §4
(§6) Humanized antibodies were subjected to ELISA binding assay (method is the same as that of Example 2), ligand binding blocking assay (method is the same as that of Example 2), and affinity kinetics experiment (method is the same as that of Example 5) in vitro.

[14] = molecular target: T7, recombinant PD-1 extracellular domain …; assay: ELISA as in Example 2, biotinylated PD-1 Fc captured on avidin
Method: as §3
Neutralization avidin (binding to biotin) was diluted to 1 μl/ml with PBS buffer, pipetted into a 96-well plate with at 100 μl/well and standed for 16 h-20 h at 4° C. The 96-well plate was washed once with PBST (PH7.4 PBS, containing 0.05% tweeen20) after PBS buffer was removed, then the plate was incubated and blocked for 1 h at room temperature with addition of 120 μl/well PBST/1% milk. After removal of the blocking solution, the plate was washed with PBST buffer, followed by addition of 1 μg/ml biotin-labeled PD1-FC which was diluted by PBST/1% milk, and incubated for 1 h at room temperature. After removal of the blocking solution, the plate was washed with PBST buffer for 3 times, followed by addition of the test PD-1 antibody which was diluted to a suitable concentration by PBST/1% milk, and incubated for 1.5 h at room temperature. After removal of reaction system, the plate was washed for 3 times with PBST buffer, followed by addition of 100 μl/well HRP-labeled anti-murine secondary antibody (The Jackson Laboratory) which was diluted by PBST/1% milk, and incubated for 1 h at room temperature. After being washed with PBST for three times, the plate was added with 100 μl/well TMB, and incubated for 5-10 min at room temperature. Then the reaction was terminated with addition of 100μ/well 1M H₂SO₄. The absorbance value at 450 nm was read on NOVOStar microplate reader; the ELISA binding EC₅₀ value was calculated.
as §6

[15] = molecular target: T7, recombinant PD-1 extracellular domain …; assay: ligand binding blocking ELISA as in Example 2, competitor biotin-labeled PD-L1
Method: as §5
PD-1-FC was diluted to 1 μg/ml with PH 9.6 CB buffer (1.59 g Na₂CO₃ and 2.93 g NaHCO₃ were dissolved in 1 L of distilled water), pipetted into a 96-well plate at 100 μl/well and standed for 16 h-20 h at 4° C. The 96-well plate was washed once with PBST (PH7.4 PBS, containing 0.05% tweeen20) after PBS buffer was removed, then the plate was incubated and blocked for 1 h at room temperature with 120 μl/well PBST/1% milk. After removal of the blocking solution, the plate was washed with PBST buffer once, followed by addition of 90 μl of test PD-1 antibody which was diluted to a suitable concentration with sample diluents (PH7.4 PBS containing 5% BSA, 0.05% Tween20), and incubated for 1 h at 4° C. Then 10× concentrations of biotin-labeled PD-L1 (Beijing Sino Biological Inc.) (10 μg/ml) was added to the plate at 10 μl/well, oscillated and mixed by an oscillator, and incubated at 37° C. for 1 h. After removal of the reaction system, the plate was washed for 6 times with PBST buffer, followed by addition of 100 ul/well Streptavidin-Peroxidase Polymer which was diluted by PBST at a ratio of 1:400, and incubated under oscillation for 50 min at room temperature. After being washed with PBST for 6 times, the plate was added with 100 μl/well TMB, and incubated for 5-10 min at room temperature. Then the reaction was terminated with addition of 100 μl/well 1M H₂SO₄. The absorbance value at 450 nm was read on the NOVOStar microplate reader; the blocking IC₅₀ value of PD-1 for ligand PD-L1 binding was calculated.
as §6

B1: murine monoclonal antibody mAb005 (antibody, V domains shown)
VH: EVMLVESGGGLVKPGGSLKLSCAASGFTFSSYMMSWVRQTPEKRLEWVATISGGGANTYYPDSVKGRFTISRDNAKNTLYLQMSSLRSEDTALYYCARQLYYFDYWGQGTTLTVSS
VL: DIQMTQSPASQSASLGEGVTITCLASQTIGTWLTWYQQKPGKSPQLLIYTATSLADGVPSRFSGSGSGTKFSFKISSLQAEDFVTYYCQQVYSIPWTFGGGTKLEIK
notes: Murine monoclonal antibody from a hybridoma; also called PD-1 antibody mAb005
Cynomolgus PD-1Fc
  EC50: 0.27 nM
[1]
  binding result: no binding
[2]
  binding result: no binding
[3]
  binding result: no binding
[4]
  binding result: no binding
[5]
  absorbance at 450 nm: 0.15
[6]
  absorbance at 450 nm: 0.17
[7]
  absorbance at 450 nm: 0.12
[8]
  absorbance at 450 nm: 2.64
[9]
  absorbance at 450 nm: 0.07
[10]
  EC50: 0.25 nM
[11]
  Kd: 3.57 nM
  koff: 0.000377 s⁻¹
  kon: 106000 M⁻¹ s⁻¹
[12]
  IC50: 1.13 nM

B2: humanized antibody H005-1 (antibody, human IgG4 S228P, kappa, F234A L235A, V domains shown)
VH: EVQLVESGGGLVQPGGSLRLSCAASGFTFSSYMMSWVRQAPGKGLEWVATISGGGANTYYPDSVKGRFTISRDNAKNSLYLQMNSLRAEDTAVYYCARQLYYFDYWGQGTTVTVSS
VL: DIQMTQSPSSLSASVGDRVTITCLASQTIGTWLTWYQQKPGKAPKLLIYTATSLADGVPSRFSGSGSGTDFTLTISSLQPEDFATYYCQQVYSIPWTFGGGTKVEIKR
notes: CDR graft of mAb005 on IgHV3-7/JH6 and IGKV1-39/JK4, IgG4 constant region; expressed in HEK293 cells; also called PD-1 antibody H005-1
[13]
  Kd: 2.79 nM
[14]
  EC50: 0.11 nM
[15]
  IC50: 1.27 nM
